Measured values reported in patent US20220193132A1 (NATIONAL RESEARCH COUNCIL OF CANADA, published 2022).

Key:
[1] = biological target: T1, EGFRvIII, full length, overexpressed on glioblastoma cells (human, UniProt P00533 298-623); test: cell-based or functional assay
[2] = biological target: wild type human EGFR, full length, overexpressed on U87MG cells (human, UniProt P00533 25-1210); test: cell-based or functional assay
[3] = biological target: T2, recombinant human EGFRvIII protein (extracellular domain), native (human, UniProt P00533 298-623); test: ELISA Exp 1, mAb supernatant
T2 construct: also called hEGFRvIII
Method: (§1) Pre- and post-immune sera titers of animals were assessed by ELISA on recombinant EGFRvIII protein. Unless otherwise stated, all incubations were performed at room temperature. […] Microplates were washed three times in PBS and blocked for 30 min with PBS containing 1% bovine serum albumin (BSA, Sigma Cat #A7030). Blocking buffer was removed and 25 μl of serial dilutions of sera samples were added. […] After a 1-h incubation, microplates were washed 4 times and 25 μl of p-nitrophenyl phosphate (pNPP) substrate (Sigma-Aldrich Canada Co., Oakville, ON) at 1 mg/ml in carbonate buffer at pH 9.6 was added and further incubated for 30 min.
(§2) Antigens at 1-2 mg/ml were incubated at 95° C. for 5 min in PBS containing DTT at a final concentration of 40 mM. They were then incubated on ice for 5 min and diluted at their final coating concentration for ELISA purpose.
(§3) ELISA was performed as described above (serum titer determination) using 25 μl of mAb supernatant (Exp 1) or purified mAb at 1 μg/ml (Exp 2).

[4] = biological target: T3, recombinant human EGFRvIII protein (extracellular domain), denatured (human, UniProt P00533 298-623); test: ELISA Exp 1, mAb supernatant
T3 construct: Same protein as m21 after 95 C for 5 min in PBS with 40 mM DTT (denatured, reduced); also called EGFRvIII Denatured
Method: as §1, §2, §3

[5] = biological target: T4, recombinant human wild type EGFR protein (extracellular domain), native (human, UniProt P00533 25-645); test: ELISA Exp 1, mAb supernatant
T4 construct: also called wt EGFR; EGFR WT
Method: as §1, §2, §3

[6] = biological target: T5, recombinant human wild type EGFR protein (extracellular domain), denatured (human, UniProt P00533 25-645); test: ELISA Exp 1, mAb supernatant
T5 construct: Same protein as m23 after 95 C for 5 min in PBS with 40 mM DTT (denatured, reduced); also called wt EGFR Denatured
Method: as §1, §2, §3

[7] = biological target: T6, EGFRvIII fragment amino acid residues 19 to 37, displayed on yeast (human); test: yeast surface display, flow cytometry
T6 construct: also called aa 19-37
T6 peptide: ACGADSYEMEEDGVRKCKK
From the text: (§4) Assessment of the binding of anti-EGFRvIII mAbs to the fusion proteins expressed on yeast cell surface was done by flow cytometry analysis. Briefly, yeast cells were labeled with both the anti-hEGFRvIII mAb and chicken anti-Myc antibody, the latter being used to monitor the level of expression of the fusion protein. Following a wash step, binding of the primary antibodies is probed by a two-color indirect fluorescence labeling using secondary antibodies specific for mouse and chicken antibodies, respectively.

[8] = biological target: T2, recombinant human EGFRvIII protein …; test: ELISA Exp 2, purified mAb 1 ug/ml;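 further: ELISA of purified mAb binding to plate-coated antigen, native or heat/DTT-denatured, with pNPP substrate developed for 30 min and incubations at room temperature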
Method: as §1, §2, §3

[9] = biological target: T3, recombinant human EGFRvIII protein …; test: ELISA Exp 2, purified mAb 1 ug/ml;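 further: ELISA of purified mAb binding to plate-coated antigen, native or heat/DTT-denatured, with pNPP substrate developed for 30 min and incubations at room temperature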
Method: as §1, §2, §3

[10] = biological target: T4, recombinant human wild type EGFR …; test: ELISA Exp 2, purified mAb 1 ug/ml;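 further: ELISA of purified mAb binding to plate-coated antigen, native or heat/DTT-denatured, with pNPP substrate developed for 30 min and incubations at room temperature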
Method: as §1, §2, §3

[11] = biological target: T5, recombinant human wild type EGFR …; test: ELISA Exp 2, purified mAb 1 ug/ml;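 further: ELISA of purified mAb binding to plate-coated antigen, native or heat/DTT-denatured, with pNPP substrate developed for 30 min and incubations at room temperature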
Method: as §1, §2, §3

[12] = biological target: T7, EGFRvIII amino acid residues 15 to 37 with Cys20 to Ala mutation (human); test: yeast display flow cytometry, alanine scan
T7 construct: mutation is already in the entry
T7 peptide: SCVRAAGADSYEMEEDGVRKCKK
From the text: as §4
(§5) To further characterize mAb epitopes within the EGFRvIII 15-37 region, an alanine scan of this region was performed, and modified fragments were expressed at the surface of the yeast. […] The resulting peptides were expressed at the surface of the yeast and each anti-EGFRvIII mAbs was tested on the corresponding yeast mutant strain by flow cytometry analysis. Thus, this assay determined the contribution of each amino acid(s) in the monoclonal antibody binding.

[13] = biological target: T8, EGFRvIII amino acid residues 15 to 37 with Glu26 to Ala mutation (human); test: yeast display flow cytometry, alanine scan
T8 construct: mutation is already in the entry
T8 peptide: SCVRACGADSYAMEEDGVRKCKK
From the text: as §4, §5

[14] = biological target: T9, EGFRvIII amino acid residues 15 to 37 with Asp30 to Ala mutation (human); test: yeast display flow cytometry, alanine scan
T9 construct: mutation is already in the entry
T9 peptide: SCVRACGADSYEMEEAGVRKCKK
From the text: as §4, §5

[15] = biological target: T10, EGFRvIII amino acid residues 15 to 37 with Gly31 to Ala mutation (human); test: yeast display flow cytometry, alanine scan
T10 construct: mutation is already in the entry
T10 peptide: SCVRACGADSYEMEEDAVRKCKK
From the text: as §4, §5

[16] = biological target: T11, EGFRvIII amino acid residues 15 to 37 with Arg33 to Ala mutation (human); test: yeast display flow cytometry, alanine scan
T11 construct: mutation is already in the entry
T11 peptide: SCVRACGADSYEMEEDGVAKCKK
From the text: as §4, §5

[17] = biological target: T12, EGFRvIII amino acid residues 15 to 37 with Cys35 to Ala mutation (human); test: yeast display flow cytometry, alanine scan
T12 construct: mutation is already in the entry
T12 peptide: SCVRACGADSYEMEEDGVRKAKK
From the text: as §4, §5

[18] = biological target: T13, EGFRvIII amino acid residues 15 to 37 with Ser15 to Ala mutation (human); test: yeast display flow cytometry, Myc-normalized;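 further: Anti-EGFRvIII monoclonal antibodies tested by flow cytometry on yeast displaying alanine-substituted fragments, two-color indirect fluorescence with anti-Myc signal tracking fusion protein expression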
T13 construct: mutation is already in the entry
T13 peptide: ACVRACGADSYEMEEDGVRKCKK
From the text: as §4, §5

[19] = biological target: T14, EGFRvIII amino acid residues 15 to 37 with Cys16 to Ala mutation (human); test: yeast display flow cytometry, Myc-normalized;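 further: Anti-EGFRvIII monoclonal antibodies tested by flow cytometry on yeast displaying alanine-substituted fragments, two-color indirect fluorescence with anti-Myc signal tracking fusion protein expression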
T14 construct: mutation is already in the entry
T14 peptide: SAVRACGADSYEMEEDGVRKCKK
From the text: as §4, §5

[20] = biological target: T15, EGFRvIII amino acid residues 15 to 37 with Val17 to Ala mutation (human); test: yeast display flow cytometry, Myc-normalized;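 further: Anti-EGFRvIII monoclonal antibodies tested by flow cytometry on yeast displaying alanine-substituted fragments, two-color indirect fluorescence with anti-Myc signal tracking fusion protein expression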
T15 construct: mutation is already in the entry
T15 peptide: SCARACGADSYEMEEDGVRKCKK
From the text: as §4, §5

[21] = biological target: T16, EGFRvIII amino acid residues 15 to 37 with Arg18 to Ala mutation (human); test: yeast display flow cytometry, Myc-normalized;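 further: Anti-EGFRvIII monoclonal antibodies tested by flow cytometry on yeast displaying alanine-substituted fragments, two-color indirect fluorescence with anti-Myc signal tracking fusion protein expression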
T16 construct: mutation is already in the entry
T16 peptide: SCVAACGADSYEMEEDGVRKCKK
From the text: as §4, §5

[22] = biological target: T17, EGFRvIII amino acid residues 15 to 37 with Gly21 to Ala mutation (human); test: yeast display flow cytometry, Myc-normalized
T17 construct: mutation is already in the entry
T17 peptide: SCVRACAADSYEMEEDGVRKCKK
From the text: as §4, §5

[23] = biological target: T18, EGFRvIII amino acid residues 15 to 37 with Asp23 to Ala mutation (human); test: yeast display flow cytometry, Myc-normalized
T18 construct: mutation is already in the entry
T18 peptide: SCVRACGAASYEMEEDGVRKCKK
From the text: as §4, §5

[24] = biological target: T19, EGFRvIII amino acid residues 15 to 37 with Ser24 to Ala mutation (human); test: yeast display flow cytometry, Myc-normalized
T19 construct: mutation is already in the entry
T19 peptide: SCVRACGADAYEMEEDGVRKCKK
From the text: as §4, §5

[25] = biological target: T20, EGFRvIII amino acid residues 15 to 37 with Tyr25 to Ala mutation (human); test: yeast display flow cytometry, Myc-normalized
T20 construct: mutation is already in the entry
T20 peptide: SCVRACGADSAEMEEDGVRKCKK
From the text: as §4, §5

[26] = biological target: T21, EGFRvIII amino acid residues 15 to 37 with Met27 to Ala mutation (human); test: yeast display flow cytometry, Myc-normalized
T21 construct: mutation is already in the entry
From the text: as §4, §5

[27] = biological target: T22, EGFRvIII amino acid residues 15 to 37 with Glu28 to Ala mutation (human); test: yeast display flow cytometry, Myc-normalized
T22 construct: mutation is already in the entry
T22 peptide: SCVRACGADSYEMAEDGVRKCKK
From the text: as §4, §5

[28] = biological target: T23, EGFRvIII amino acid residues 15 to 37 with Glu29 to Ala mutation (human); test: yeast display flow cytometry, Myc-normalized
T23 construct: mutation is already in the entry
T23 peptide: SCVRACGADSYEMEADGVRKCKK
From the text: as §4, §5

[29] = biological target: T24, EGFRvIII amino acid residues 15 to 37 with Val32 to Ala mutation (human); test: yeast display flow cytometry, Myc-normalized
T24 construct: mutation is already in the entry
T24 peptide: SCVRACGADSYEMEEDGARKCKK
From the text: as §4, §5

[30] = biological target: T25, EGFRvIII amino acid residues 15 to 37 with Lys34 to Ala mutation (human); test: yeast display flow cytometry, Myc-normalized
T25 construct: mutation is already in the entry
T25 peptide: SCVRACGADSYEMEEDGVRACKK
From the text: as §4, §5

[31] = biological target: T26, EGFRvIII amino acid residues 15 to 37 with Lys36 to Ala mutation (human); test: yeast display flow cytometry, Myc-normalized
T26 construct: mutation is already in the entry
T26 peptide: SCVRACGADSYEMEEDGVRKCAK
From the text: as §4, §5

[32] = biological target: T27, EGFRvIII amino acid residues 15 to 37 with Lys37 to Ala mutation (human); test: yeast display flow cytometry, Myc-normalized
T27 construct: mutation is already in the entry
T27 peptide: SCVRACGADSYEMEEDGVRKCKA
From the text: as §4, §5

[33] = biological target: T1, EGFRvIII, full length, overexpressed on …; test: flow cytometry dose-response on U87MG-EGFRvIII cells, apparent Kd
Method: Prior to analysis, cells were plated such that they were not more than 80% confluent on the day of analysis. Unless otherwise stated, all media are kept are 4° C. and all incubations are performed on wet ice. Cells were washed in PBS, harvested by the addition of cell dissociation buffer (Sigma), centrifuged and resuspended in complete medium at a cell density of 2×10⁶ cells/mL. Fifty μL/well of cells were distributed in a polypropylene v-bottom 96 well plate and serial 1/3 dilutions of purified mAbs starting at 100 nM were added and incubated for 2 hours. […] Cells were washed and re-suspended in medium containing Propidium iodide to exclude dead cells from analysis. Samples were filtered through a 60 μm nylon mesh filter plate (Millipore, Ireland) to remove cell aggregates. Flow cytometry analyses were performed on 2,000 viable single-cells events gated on forward scattering, side scattering parameters and propidium iodide dye exclusion using a BD-LSRFortessa flow cytometer (Becton-Dickinson Biosciences, CA, USA) and a standard filter set using BD FACSDiva™ acquisition software, according to manufacturer's instructions.
Specific detection of antibody binding was calculated as the mean fluorescent intensity of binding to each primary antibody after background level subtraction of the mean fluorescent intensity of binding of mouse IgG control. The data were analyzed with GraphPad Prism v 6.0 software using one-site specific binding with Hill slope non-linear regression curve fit model to determine Bmax (maximum specific binding) and Kdₐₚₚ (concentration needed to achieve a half-maximum binding at equilibrium) for each mAb tested.

T21 sequence (peptide, as listed by the source, change not shown): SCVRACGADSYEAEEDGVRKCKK

B1: F263-4E11 (antibody, V domains shown)
VH: DVQLQESGPGLVKPSQSLSLTCTVTGYSITSDYAWNWIRQFPGNKLEWMGYIGYNGRTSYNPSLKSRISITRDTSKNQFFLQLNYVTTEDTATFYCARLGRGFAYWGQGTLVTVSA
VL: DILMTQSPSSMSVSLGDTVSITCHASQGINSNIGWLLQKPGKSFKGLIYHGTNLEDGVPSRFSGSGSGTDYSLTISSLESEDFADYYCVQYAQFPYTFGGGTKLEIK
notes: Mouse hybridoma mAb
% survival (DM1 secondary-conjugate ADC surrogate assay, vs mouse IgG) [1]: 54% | % survival (DM1 secondary-conjugate ADC surrogate assay, vs mouse IgG) [2]: > 98% | ELISA absorbance 405 nm [3]: 1.36 A405 | ELISA absorbance 405 nm [4]: 1.39 A405 | ELISA absorbance 405 nm [5]: 1.62 A405 | ELISA absorbance 405 nm [6]: 0.029 A405 | binding result [7]: binds | ELISA absorbance 405 nm [8]: 1.53 A405 | ELISA absorbance 405 nm [9]: 0.997 A405 | ELISA absorbance 405 nm [10]: 1.7 A405 | ELISA absorbance 405 nm [11]: 0.001 A405 | binding result [12]: no binding (tested: 0-15% of wild-type binding) | binding result [13]: no binding (tested: 0-15% of wild-type binding) | binding result [14]: no binding (tested: 0-15% of wild-type binding) | binding result [15]: no binding (tested: 0-15% of wild-type binding) | binding result [16]: no binding (tested: 0-15% of wild-type binding) | binding result [17]: no binding (tested: 0-15% of wild-type binding) | % of binding vs wild-type fragment 15-37 [18]: 94.9% | % of binding vs wild-type fragment 15-37 [19]: 176% | % of binding vs wild-type fragment 15-37 [20]: 148% | % of binding vs wild-type fragment 15-37 [21]: 102% | % of binding vs wild-type fragment 15-37 [22]: 180% | % of binding vs wild-type fragment 15-37 [23]: 58.4% | % of binding vs wild-type fragment 15-37 [24]: 170% | % of binding vs wild-type fragment 15-37 [25]: 83.3% | % of binding vs wild-type fragment 15-37 [26]: 102% | % of binding vs wild-type fragment 15-37 [27]: 90.9% | % of binding vs wild-type fragment 15-37 [28]: 75.3% | % of binding vs wild-type fragment 15-37 [29]: 30.4% | % of binding vs wild-type fragment 15-37 [30]: 130% | % of binding vs wild-type fragment 15-37 [31]: 110% | % of binding vs wild-type fragment 15-37 [32]: 191% | Kd [33]: 6.7 nM
